Laboratory results taken from the DeepSol protein solubility set.

Experiment: soluble on expression in E. coli; label from the status in PepcDB or PDB records
In the case of “MNSSESSSNSEVSSSKTRTVKHAMGTSDNIPANPKRIVVLTNEGTEALLALGIKPVGAVKSWKGDPWYDYLKDDMKGVKNVGLETEPNVEAIAELKPDLIIGNKVRQEKIYDQLNAIAPTVFAESLAGNWKDNLTLYANAVNKADKGKEVIADFDKRVSDLKNKLGDQTNKTVSVVRFLSGESRIYYTDSFPGIILDQLGFKRPEKQVELFKKQKDQFTFSTDSKESIPDMDADVLFYFTYKADNAKENEKWANQWTSSSLWKNLKAVKSGNAHEVDDVVWTTAGGIKAANYLLDDIETYFLKTKLEHHHHHH”, the “soluble on expression in E. coli” value is reported as “not soluble”.
With “MKEKVIVIGGGLAGSEAAWRLANEGHRVILYEMRPKKMTPAHKTGNLAELVCSNTLGGLELTTGAGLLKAEMQKLGSLVIEAAKVARVPAGGALGVDRKIFSEYITEKIESHPNITLIREEVKEIPEDEVVVIATGPLTSDALSEKIKELVGYDTLYFYDAIAPIVEAESVDFSKGFWGSRYGKGGDDYFNCVLTEEEYKKFYEELLKAEKVKPKDFEKAVHFEGCLPIEEMAERGYKTLLFGPMKPVGLVDPRTGKEPFAVVQLRKENKEGTLLSLVGFQTKLTYKEQKRVFRLIPCLRNAVFVRLGSMHRNTFIQSNKVLTHYLNLKKKENIFFAGQITGVEGYVASSATGILAGINAGRLARGEKPLKAPTETMLGALVNYIVTKEGELQPMNPVFGLLPPLEKKVRDKKKRKELMAKRALETMEKWIKENNLVPEGLVKVC” the “soluble on expression in E. coli” value was “soluble”.
In the case of “GSDEKRLHFGNGHLKLPGLRTYVDPHTYEDPTQTVHEFAKELDATNISIDKVVGAGEFGEVCSGRLKLPSKKEISVAIKTLKVGYTEKQRRDFLGEASIMGQFDHPNIIRLEGVVTKSKPVMIVTEYMENGSLDSFLRKHDAQFTVIQLVGMLRGIASGMKYLSDMGYVHRDLAARNILINSNLVCKVSDFGLSRVLEDDPEAAYTTRGGKIPIRWTSPEAIAYRKFTSASDVWSYGIVLWEVMSYGERPYWEMSNQDVIKAVDEGYRLPPPMDCPAALYQLMLDCWQKDRNNRPKFEQIVSILDKLIRNPGSLKIITSAAARPSNLLLDQSNVDITTFRTTGDWLNGVWTAHCKEIFTGVEYSSCDTIAKIS”, the “soluble on expression in E. coli” value is reported as “soluble”.
In the case of “MLRISRDLVIDEDDIEIGFVRASGPGGQNVNKVATSAQLRFDTRKLTLPEDATIRLARIAGQRMTKDGVIVIHAQRFRTQERNRQDAIDRLVEILSEAMIRPKPRRATRPTFGSKQRRLEGKKRRSDVKAGRGRSFDDLEHHHHHH”, the “soluble on expression in E. coli” value is reported as “soluble”.
For “MGSDKIHHHHHHMFSKSLEALHHAKRYRKRELFDPLLKDYASNDYLGLSVKKDLLQNAFNKLQSFVSHSPKASMLVNGYHPLHAELEERLANLLGFESALLVGSGFLGNLALIDTLLVKNALLFMDAHYHASGIFSTKIKPNQVIFFSHNDIKDLKQKLFNAPKNKIKFIAIEGVYSMDASVAPYDFYAIIQEIPNAFLIVDEAHSFGTIGENLLGFLEYYRIKEKDKIIKLSTFSKALASYGACILAPLQTIEFLTNRAKSVIYTTALSLLDTALTLAHLEYFIVQKQELKNELSKHQQIIFETLGIRTLAGFFTLEFESNPALLNAHHFLKEKGFLVGAIRPPTVSKPLLRVSLSLKNSLEDTKELANTLLNYSKIQSSFKSG”, the “soluble on expression in E. coli” value was “not soluble”.
With “GPGSMQTDFGDATTFSLRPDHKRKFRPNDIRPVVRSLLESRLENEVYKADEMQSISKEIADGVRDRIRSMELERYKIMVHCMIGEQRGQGLRAGCKMFWDSDTDDYFEEVYVTQHLFAVVTVFGLYQY” the “soluble on expression in E. coli” value was “not soluble”.
In the case of “MKHVPPTVLVWFRNDLRLHDHEPLHRALKSGLAITAVYCYDPRQFAQTHQGFAKTGPWRSNFLQQSVQNLAESLQKVGNKLLVTTGLPEQVIPQIAKQINAKTIYYHREVTQEELDVERNLVKQLTILGIEAKGYWGSTLCHPEDLPFSIQDLPDLFTKFRKDIEKKKISIRPCFFAPSQLLPSPNIKLELTAPPPEFFPQINFDHRSVLAFQGGETAGLARLQDYFWHGDRLKDYKETRNGMVGADYSSKFSPWLALGCLSPRFIYQEVKRYEQERVSNDSTHWLIFELLWRDFFRFVAQKYGNKLFNRGGLLNKNFPWQEDQVRFELWRSGQTGYPLVDANMRELNLTGFMSNRGRQNVASFLCKNLGIDWRWGAEWFESCLIDYDVCSNWGNWNYTAGIGNDARDFRYFNIPKQSQQYDPQGTYLRHWLPELKNLPGDKIHQPWLLSATEQKQWGVQLGVDYPRPCVNFHQSVEARRKIEQMGVIA”, the “soluble on expression in E. coli” value is reported as “soluble”.
With “MIWNETIECMDRESLRKIQSIRLKKIVDYVYHNTPFYRKKMQEMGITPDDINTIDDIVKLPFTTKHDLRDNYPFGLCAVPMSQIVRIHASSGTTGKPTVVGYTRKDLSSWAECISRAFTAYGAGRSDIFQVSYGYGLFTGGLGAHAGAENIGASVIPMSSGNTEKQITLMHDFGSTVLCCTPSYALYLADAIKDSGYPREEFQLKVGALGAEPWTENMRHEIEEKLGIKAYDIYGLSEIAGPGVGYECECQHGTHLNEDHYFPEIIDPNTLQPVEPGQTGELVFTHLTKEGMPLLRYRTRDLTALHYDKCSCGRTLVRMDRILGRSDDMLIIRGVNVFPTQIESVILEMEEFEPHYLLIVGRENNTDTMELQVEVRPDFYSDEINRMLALKKKLASRLQSVLGLGVNVKLVEPRSIERSVGKAKRVIDNRKI” the “soluble on expression in E. coli” value was “not soluble”.
With “MGSDKIHHHHHHMILYFSGTGNSRYVARKIAQELNDELISLNQLIKDEKTDELISADKPFIFVCPTYAWRLPIVVTDFIKETKFLGSNRVYFVMTCGGDTAKSINYIQKLCKYKEWQLKGMAEIKMPENYIALFSTTDKETSKQMIKEADKQIYRIISDIRNENEFETITPSGLGGTIKSGIINTVFYKTIISAKGFHYTDKCIGCGKCVELCPLNNINLKNKKPVWKNNCTHCMACICGCPTEAIEYKNKTQNRERYYLE” the “soluble on expression in E. coli” value was “not soluble”.
For “MFEVPITLTNRKFAQRRKLKYQYINYISRRFDRISKKSTTTDSLPTPENSAAENNDEEEGQNSEAGTYRRSVLQQKKRRRERHWRSVVGEIYSTTESETDSQEEETEEGGEHDTGIDKEDSDEERKFWKKYEKPEKSFEIWRTVSSQNKQPINKQKMTYHNFKKIEKIPLRKMEIPLLHCTKENKLYFQSISRGLEPLKTSTSEVRNYRTRHIVTLTDLLHLNVSRHNWSLAYKIFATLIRIPGVQIKSLWGIGVEILDNLSNSSSGLDFLQWMCQIYSSKSRFVQNINYRSIVPPFQTGSRTHTAKFAITYLWSSLINCQKSMEPSSNIIDKPFDTENDLLQELIDKISEWVLTPPFMEDAEVWFIYASCHLLKADTLSRQFVNDNKNNDLIGLDRDIKINQVIKHIHYVRTFLKICLDKGGFAVPSRLIENQLKSFESRLYGEAQDIQERDVANVYDSIDNSSVENSFGDVYETNAEFLDTQLMDLSPEDNGLDEMHYSDEDSSE”, the “soluble on expression in E. coli” value was “not soluble”.
For “MRLSDYNTPLSGMLAAQMGLQTTKQNLSNIHTPGYVRQMVNYESAGGSKGYAPEQRIGYGVQTLGVDRITDEVKTKQYNDQMSQFSYYAYMNSTLSRVESMVGTTGKNSLSSLMDGFFNAFREVAKNPEQSNYYDTLIAETGKFTSQVSRLAKNLDTVEAQTTEDIEAHVNEFNRLAASLAEANKKIGQAGTQVPNQLLDERDRIMTEMSKYADIEVSYEATNPNIASVRMNGVLTVNGQDTYPLQLQKDKKPMSVQISGTDIPLSGGTILSAIDTKAKITNYKDNLNEFVNSLKKQVNNTMKKELFVGEDAKKLELNPDFIKDISKMKISAETANNLAAITDKGYKDGLTYKQALDQFLVGVASDKSSVNAYQNIHKDLLEGIQQEKMSIEGVNMEEEMVNLMAFQKYFVANSKAITTMNEVFDSLFSIIR”, the “soluble on expression in E. coli” value was “not soluble”.
For “MSSKANHAKTVICGIINVTPDSFSDGGQFFALEQALQQARKLIAEGASMLDIGGESTRPGSSYVEIEEEIQRVVPVIKAIRKESDVLISIDTWKSQVAEAALAAGADLVNDITGLMGDEKMPHVVAEARAQVVIMFNPVMARPQHPSSLIFPHFGFGQAFTEEELADFETLPIEELMEAFFERALARAAEAGIAPENILLDPGIGFGLTKKENLLLLRDLDKLHQKGYPIFLGVSRKRFVINILEENGFEVNPETELGFRNRDTASAHVTSIAARQGVEVVRVHDVASHRMAVEIASAIRLADEAENLDLKQYK”, the “soluble on expression in E. coli” value was “soluble”.
In the case of “MDQKKDPSNNLTERRVSKVQRPNKKKVRNQVESLSRNLERNKEGQLLQTVSKGHLEADSGHSLGREKENGELGIRSIFYDKDWNPRGTAPSHYRNIPYNPATFKRRTEVQARLGNLENIKIPK”, the “soluble on expression in E. coli” value is reported as “not soluble”.
For “MGSDKIHHHHHHMETCRQEVTMDKVFIISQKAEQQADAIETGIALARVLEKEAEVFAYSYESFAGKEYYNPRLGAAAKVALMNQRSEEIAAKLKALKAEDVAVHSVWTKDLFEHACHHSIRHGFDLMVKAVHHKTHYLPMDWQLIRHVRIPLMMLCDNPLQRARSVLMAVDLGSDNPIKQKLNQCVIQQGRQLAEAMDCQLHLAYIIRVPKILRDMDLIDTRTLVKDAYHRYQPQLDEIDLHQEHVHFLAGDPDLCLYELSCRLKAAYLVMGARQRKGLMGMVIGNTAEAMLTRIRSNVLIIPADDQLLPA”, the “soluble on expression in E. coli” value was “not soluble”.
For “MFRNAAELVAQAKEQNVKIAEIMIQCEMETRSISREEVIAGMEKNLVVMEQAVERGIRGVKSPTGLTGGDAVKVQAYMKSGKGLSGDTILDAVSKAVATNEVNAAMGIICATPTAGSAGTVPGVLFALREKLQPTREEMIEFLFTAGAFGMVVANNACISGAAGGCQAEVGSASGMAAAAAVEMAGGTQEQAATAMAISLKNMLGLVCDPVAGLVEVPCVKRNAAGAANAMISADLALAGVTSTIPCDEVIEAMFRIGQTMPVALRETAEGGLAATPTGRRLQEEIFGKTNN”, the “soluble on expression in E. coli” value was “not soluble”.
In the case of “MIPLEKPGSGGSSPGATSGSGRAGRGLSGPCRPPPPPQARGLLTEIRAVVRTEPFQDGYSLCPGRELGRGKFAVVRKCIKKDSGKEFAAKFMRKRRKGQDCRMEIIHEIAVLELAQDNPWVINLHEVYETASEMILVLEYAAGGEIFDQCVADREEAFKEKDVQRLMRQILEGVHFLHTRDVVHLDLKPQNILLTSESPLGDIKIVDFGLSRILKNSEELREIMGTPEYVAPEILSYDPISMATDMWSIGVLTYVMLTGISPFLGNDKQETFLNISQMNLSYSEEEFDVLSESAVDFIRTLLVKKPEDRATAEECLKHPWLTQSSIQEPSFRMEKALEEANALQEGHSVPEINSDTDKSETEESIVTEELIVVTSYTLGQCRQSEKEKMEQKAISKRFKFEEPLLQEIPGEFIY”, the “soluble on expression in E. coli” value is reported as “soluble”.
For “MGSDKIHHHHHHMKEWRRNILGRELVVQYGKVAKQSSGSALVRFGDTVVLATANISDKAVEGIDFVPLTVEFQERFYAAGKIPGGFIKREGKPSESAILSARLIDRPIRPLFPKKLRNEVQVIVTVLSVDPNVPPDVVGIFAASLALNVSKIPFEGIVAGIRVGYRDGQFIALPSEEDIEKGLMDITVAGTKDAVTMVEGEAKEVTEEDMVKALRFAHSVIKELVDFQEEILSEFNVEKIPVVEPTPPEGLVEAFKDLLNKEELERRILVKVKKEREVALKEYEEQLLNQIAEKLSVTDLEGIKPFVSELYEDAVKKTMRRLIVEKGIRADGRKPTEIRPISCEVGLFPRTHGSALFTRGETQSLGIVTLGAPMDVQIIDTLLEEGVKRFMLHYNFPPFCTGEVKPLRGPSRREIGHGHLAERALKNMLPPEEEFPYTIRVVSEILESNGSSSMATVCSGSLALMDAGVPIKKHVAGIAMGLILEEDAEIILTDIIGMEDHYGDMDFKVAGTRDGITAFQMDCKVSGVSDELLMKALMQAREARMYILDRMYETISAPRPHLSKYAPIIKVTKVDPEKVADVIGPGGRVIKKIIKDFDVKVEIDDETGLVKVVGSSEENVDKAIELIREIAKEIEVGEVLEGKVTRIEPYGLFIEVRPGKIGLLHQSKVGEDMRQFLKKVKVGDTIKVQVINIDDLGRLQFKRVTEGENTQHGKTHSKRN”, the “soluble on expression in E. coli” value was “not soluble”.
